From patent US7943141B2, “Activated polyoxazolines and compositions comprising the same” (Serina Therapeutics, Inc., priority 2007, dated 2011)

T1: catalase (Bos taurus, UniProt P00432)
T1 sequence (P00432 2-527 limits assumed): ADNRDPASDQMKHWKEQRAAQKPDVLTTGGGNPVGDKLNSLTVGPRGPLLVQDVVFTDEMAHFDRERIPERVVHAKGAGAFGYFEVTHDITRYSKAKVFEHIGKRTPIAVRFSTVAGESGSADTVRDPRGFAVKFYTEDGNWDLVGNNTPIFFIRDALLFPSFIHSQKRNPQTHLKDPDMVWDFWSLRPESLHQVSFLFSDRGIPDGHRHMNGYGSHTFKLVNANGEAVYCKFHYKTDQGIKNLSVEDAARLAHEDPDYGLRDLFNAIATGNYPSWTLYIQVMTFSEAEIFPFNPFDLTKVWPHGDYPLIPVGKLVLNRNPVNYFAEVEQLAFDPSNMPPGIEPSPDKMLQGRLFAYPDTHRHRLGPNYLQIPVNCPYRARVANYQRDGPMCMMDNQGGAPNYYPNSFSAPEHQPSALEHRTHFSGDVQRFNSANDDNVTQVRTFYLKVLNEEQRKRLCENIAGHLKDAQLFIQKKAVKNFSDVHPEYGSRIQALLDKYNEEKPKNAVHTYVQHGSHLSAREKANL

T2: ribonuclease A (Bos taurus, UniProt P61823)
T2 sequence (P61823 27-150): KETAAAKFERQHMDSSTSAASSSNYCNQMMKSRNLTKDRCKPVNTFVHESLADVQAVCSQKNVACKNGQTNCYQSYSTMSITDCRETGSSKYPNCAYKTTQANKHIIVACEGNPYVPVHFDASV


Columns and labels:
[1] = target: T1, catalase; assay: Catalase enzymatic activity (method of Beers and Sizer); format: biochemical; conditions: native enzyme
Description: (§1) To evaluate the different influence on enzyme properties as a function of polymerization with POZ derivatives of the present disclosure and corresponding PEG polymers known in the art, three different enzymes, ribonuclease A, uricase and catalase, were modified with M-PEOZ-O—CH2—CO2—NHS (6 kDa) and PEG-O—CH2—CO2—NHS (5.5 kDa). To facilitate the comparison, each enzyme was modified under similar conditions regarding polymer to enzyme ratios, buffer, pH and reaction temperature.
The conditions of enzyme modification with the POZ and PEG polymers described above were 0.2 M, pH 8.5 in borate buffer. The amount of POZ and PEG polymer used for modification was calculated on the basis of calculated total available amino groups in each enzyme. […]
To the three enzymes solutions (2.5 mg/ml) M-POZ-O—CH2—CO2—NHS or PEG-O—CH2—CO2—NHS solid were added at room temperature at a molar ratio of polymer to protein amino groups of 2/1 and 1/1 respectively. Protein concentration of the native forms of ribonuclease, uricase and catalase was evaluated spectrophotometrically using molar extinction coefficients of 9.45×10^3, 13×10^3 and 1.67×10^5 at 280 nm, respectively. […]
The degree of protein modification was evaluated colorimetrically by TNBS assay and expressed as percentage of conjugate amino groups to the total ones present on the protein. […]

[2] = target: T2, ribonuclease A; assay: Ribonuclease enzymatic activity (method of Crook et al.); format: biochemical
Description: as §1
The conditions of enzyme modification with the POZ and PEG polymers described above were 0.2 M, pH 8.5 in borate buffer. The amount of POZ and PEG polymer used for modification was calculated on the basis of calculated total available amino groups in each enzyme. For example, ribonuclease A has a molecular weight of 13.7 kDa and 11 available amino groups; uricase has a molecular weight of 130 kDa and 100 available amino groups; and catalase has a molecular weight of 240 kDa and 112 available amino groups.
To the three enzymes solutions (2.5 mg/ml) M-POZ-O—CH2—CO2—NHS or PEG-O—CH2—CO2—NHS solid were added at room temperature at a molar ratio of polymer to protein amino groups of 2/1 and 1/1 respectively. Protein concentration of the native forms of ribonuclease, uricase and catalase was evaluated spectrophotometrically using molar extinction coefficients of 9.45×10^3, 13×10^3 and 1.67×10^5 at 280 nm, respectively. After 30 minutes, polymer-enzyme conjugates were purified from unreacted polymer and n-hydroxysuccinimide by gel filtration chromatography Sephadex G-75 column, with 0.1M phosphate buffer, pH 7.4 as eluent.
The degree of protein modification was evaluated colorimetrically by TNBS assay and expressed as percentage of conjugate amino groups to the total ones present on the protein. Enzymatic activity of native and modified enzymes was evaluated as follows: ribonuclease activity was assayed by the method of Crook et al. (Biochem J. 1960 February; 74:234-8); uricase activity was determined by the method of Mahler (Anal Biochem. 1970 November; 38(1):65-84); and catalase was assayed according to a method reported by Beers and Sizer (J. Biol. Chem. 1952 March; 195(1):133-40).

% activity [1] [%]	% activity ([2]; native enzyme) [%]	% activity ([2]; NH2:polymer molar ratio 1:1) [%]	% activity ([2]; NH2:polymer molar ratio 2:1) [%]	Molecule
–	100	–	–	RNAse: native ribonuclease A (protein, UniProt P61823 27-150, looked up) Ribonuclease pancreatic: KETAAAKFERQHMDSSTSAASSSNYCNQMMKSRNLTKDRCKPVNTFVHESLADVQAVCSQKNVACKNGQTNCYQSYSTMSITDCRETGSSKYPNCAYKTTQANKHIIVACEGNPYVPVHFDASV
–	–	15	10	PEG/RNAse: ribonuclease A modified with PEG-O—CH2—CO2—NHS (5.5 kDa) (conjugate, UniProt P61823 27-150, looked up, PEG 5.5 kDa conjugate) Ribonuclease pancreatic: KETAAAKFERQHMDSSTSAASSSNYCNQMMKSRNLTKDRCKPVNTFVHESLADVQAVCSQKNVACKNGQTNCYQSYSTMSITDCRETGSSKYPNCAYKTTQANKHIIVACEGNPYVPVHFDASV

Continued, molecule first:

Molecule	% activity [1] [%]	% activity ([2]; native enzyme) [%]	% activity ([2]; NH2:polymer molar ratio 1:1) [%]	% activity ([2]; NH2:polymer molar ratio 2:1) [%]
Catalase	100	–	–	–
POZ/RNAse: ribonuclease A modified with M-PEOZ-O—CH2—CO2—NHS (6 kDa) (conjugate, UniProt P61823 27-150, looked up, M-PEOZ 6 kDa conjugate) Ribonuclease pancreatic: KETAAAKFERQHMDSSTSAASSSNYCNQMMKSRNLTKDRCKPVNTFVHESLADVQAVCSQKNVACKNGQTNCYQSYSTMSITDCRETGSSKYPNCAYKTTQANKHIIVACEGNPYVPVHFDASV	–	–	50	30
